Residue numbers refer to the chain shown, from its start. Numbers in names are those of the source.
What was measured:
Jurkat cells [1] = assay: subG1 population / DNA fragmentation by flow cytometry after PI staining; assay type: cell-based; conditions: for DNA fragmentation (sub G0/G1), substance alone: TSA 100 ng/ml or SAHA 2.5 μM
Procedure: Cell Cycle Analysis by cytometry—Cells were harvested, washed with PBS and then fixed in suspension in 75% cold ethanol at 4° C. for 2 hours at least. The samples were then centrifuged, washed with PBS, and treated with 0.25% triton X-100 for 10 minutes at room temperature. The cells were washed again, resuspended in 2.5 μg/ml of PI and 250 μg/ml Rnase A in PBS, and incubated at 4° C. overnight prior to measurement. Cellular fluorescence was measured using the Facscalibur flow cytometry (Becton Dickinson, San Jose, Calif.). The simple-cell populations were determinated on the basis of their fluorescence-intensity values FL2-A and FL2-W.
The effects of HAMLET on DNA fragmentation were compared between untreated cells and those pre-treated with TSA to increase acetylation. Sub G0/G1 DNA fragmentation was quantified by flow cytometry using the methodology as described in Example 1.
(§1) Cells in medium were used as controls.

[2] = system: acetyl histone H4 in Jurkat cells; assay: acetyl histone H4 by flow cytometry; assay type: cell-based; conditions: for histone acetylation (Example 5): TSA 3 hours or 18 h, HAMLET 3 h, total population
Procedure: Acetyl histone H4 and Cell Cycle Analysis by cytometry—Cells were harvested, washed with PBS and then fixed in suspension in 75% cold ethanol at 4° C. for 2 hours at least. The samples were then centrifuged, washed with PBS, and treated with 0.25% triton X-100 for 10 minutes at room temperature. After addition of 3 ml of PBS and centrifugation, the cells were incubated for at least 30 min in swine serum 1% (DAKO, Solna, Sweden) in PBS. After addition of 3 ml of PBS and centrifugation, the cells were incubated for 3 hours at room temperature in the presence of rabbit polyclonal anti-body to human acetyl Histone H4 (Upstate), diluted 1/500 containing 1% BSA. Cells were then washed and incubated with a FITC-conjugated swine anti-rabbit antibody (DAKO, Solna, Sweden) diluted 1/20 in PBS containing 1% BSA for 2 h. The cells were washed again, resuspended in 2.5 μg/ml of PI and 250 μg/ml Rnase A in PBS, and incubated at 4° C. overnight prior to measurement. The control was prepared identically as described above, except the presence of the histone antibody. Cellular fluorescence was measured using the Facscalibur flow cytometry (Becton Dickinson, San Jose, Calif.). The simple-cell populations were determined on the basis of their fluorescence-intensity values FL2-A and FL2-W. Then red and green emissions from each cell were separated and quantified using the standard optics of the cytometer.
The level of chromatin acetylation in Jurkat cells was quantified by flow cytometry, using specific antibodies to acetylated histone H4 (FIG. 1). To increase acetylation, the cells were treated with the HDAC inhibitor TSA (FIG. 1C, FIG. 1E line 3).
The inhibition of HDAC causes an accumulation of acetylated histones. The level of acetyl histone H4 in Jurkat cells was quantified by flow cytometry after staining with specific antibodies. The cells were counterstained with propidium iodide to visualize the change in chromatin levels. Results are presented as density plot diagrams representing the DNA content on the Y-axis between four populations of cells (Sub1, G1, S, and G2), and the degree of acetylation of Histone H4 on the X-axis.

[3] = viability by trypan blue exclusion (Vi-Cell XR); conditions: human, Jurkat cells
Procedure: (§2) Jurkat cells were first pretreated with or without TSA 100 ng/ml during 3 or 18H and then treated by HAMLET during 3H. Viability was assessed by trypan blue exclusion using the Vi-Cell XR apparatus.
(§3) To examine if HDAC inhibitors might influence the effects of HAMLET on the viability of tumour cells, Jurkat cells were pretreated with HDAC inhibitors TSA 3 hours or 18 h and then exposed to HAMLET (FIG. 5). The cellular response to the combined treatment was compared to the response to TSA alone (3 h or 18 h) and to HAMLET (3 h). Cells in medium were used as controls. The cellular response was quantified by flow cytometry and the subG1 population was used as a measure of chromatin fragmentation and cell death (FIGS. 5 and 6A). In parallel, cell viability was assessed by ATP levels (FIG. 6B) and trypan blue exclusion (FIG. 6C).

[4] = system: HeLa cells expressing GFP-tagged Histone H4; assay: acetyl histone H4 and nuclear morphology by confocal microscopy; assay type: cell-based; conditions: TSA 100 ng/ml; vs control cells
Procedure: Acetyl histone H4 by confocal microscopy—Hela Cells were grown in Lab-Tek Chamber slides. Cells were washed twice in PBS, and then fixed 10 minutes in PBS formaldehyde 4%. The samples were then centrifuged, washed with PBS, and treated with 0.1% triton X-100 for 2 minutes at room temperature. After washes, cells were incubated for at least 30 min in swine serum 1% (DAKO, Solna, Sweden) in PBS. Then cells were incubated for 3 hours at room temperature in the presence of rabbit polyclonal antibody to human acetyl Histone H4 (Upstate), diluted 1/500 containing 1% BSA. Cells were then washed and incubated with an Alexa633-conjugated goat anti-rabbit antibody (Invitrogen) diluted 1/200 in PBS containing 1% BSA for 2 h. The cells were washed 3×5 min. in PBS prior to evaluation in an LSM 510 META confocal microscope (Carl Zeiss, Germany) with a 63× objective. The frequency of each chromatin patterns is shown in fold of control cells staining after counting a minimum of 30 cells in each experiment.
The effect of HAMLET and TSA on the acetylation of Histone H4 was further examined by confocal microscopy of adherent HeLa cells expressing GFP-tagged Histone H4. […] The acetylation level of histone H4 in the control cells was very weak (FIG. 9A).

A459 cells = assay: subG1 DNA fragmentation by flow cytometry in A459 cells; assay type: cell-based; conditions: TSA 100 ng/ml overnight, then HAMLET 30 μM one hour; data not shown
Procedure: In addition, non confluent A459 cells were treated with or without TSA 100 ng/ml overnight. Then HAMLET was added for one hour at 30 μM. As before, DNA fragmentation was followed both by flow cytometry. Following PI staining (cf. Materials and methods), subG1 populations were quantified and presented as percent of the total population.

[5] = bovine α-lactalbumin mutants, Permyakov et al. 2001; cited from earlier work
[6] = biological activity of α-lactalbumin mutants in apo-conformation; conditions: mutant proteins stable in apo-conformation at physiologic temperatures, without cofactor
Jurkat cells [7] = assay: cell viability by ATP levels; assay type: cell-based; conditions: 3 h exposure, vs control cells
Source text: ATP monitoring reagent (AMR) was purchased from Cambrex (Wokingham, U.K.) in the form of a ViaLight™ HS kit and was reconstituted according to the manufacturers guidelines.
as §1

[8] = system: tailless histones and DNA; assay: nucleosome assembly from tailless histones and DNA; assay type: biochemical, Drosophila melanogaster; conditions: radiolabelled 146 bp DNA fragments, gel
Procedure: FIG. 4. Effects of HAMLET on a mixture of tailless histones and DNA. HAMLET was added to a mixture of radiolabelled 146 bp DNA fragments and tailless histones. In the absence of HAMLET, no nucleosomes are formed (lane 1). […] Nucleosome assembly on the 146 bp fragment results in one single nucleosome species, designated N. At higher concentrations of HAMLET, more nucleosomes were formed and HAMLET associated with them to form a second band in the gel. HAMLET also dissolved the unspecific histone-DNA aggregated seen in the wells.
Histones—Native, folded histones were obtained from duck erythrocyte nuclei. Native or tailless Drosophila melanogaster histones were expressed in E. coli, purified and assembled into octamers. The fold and functional integrity of the histones were confirmed by nucleosome assembly on DNA.
Chromatin assembly—To generate nucleosomes, histone octamers (recombinant or purified from cells) were assembled on linear DNA according to the “salt jump” method (Stein, 1979). ^32P-labeled 256 bp fragments and carrier DNA (supercoiled plasmid DNA, final DNA concentration 200 μg/ml) were mixed with histones (histone:DNA weight ratio 0.4-0.6) in 2 M NaCl, 10 mM Tris-HCl (pH 7.5). The mixture was incubated for 10 min at 37° C., diluted to 0.5 M NaCl, incubated at the same temperature for 30 min, and dialyzed at 4° C. against 10 mM Tris-HCl (pH 7.5) and 1 mM EDTA for 2 h. […]

Jurkat cells [9] = assay: viability by trypan blue exclusion (Vi-Cell XR); conditions: HAMLET 3 h, in comparison with control
Procedure: as §2, §3

O=C(CCCCCCC(=O)Nc1ccccc1)NO [SAHA, suberoylanilide hydroxamic acid]
DNA fragmentation (sub G0/G1), substance alone (Jurkat cells [1]; HAMLET 1 hour): did not trigger DNA fragmentation

CC(/C=C/C(=O)NO)=C\[C@@H](C)C(=O)c1ccc(N(C)C)cc1 [TSA, Trichostatin A]
histone acetylation (Example 5) [2]: time dependent increase in histone acetylation | time of maximal effect on acetylation ([2]; TSA treatment): two hours | acetylation of histone H4, increase vs control ([2]; increased concentration of TSA without HAMLET, intact cells (subG1 removed)): 2 fold | DNA fragmentation (sub G0/G1), substance alone (Jurkat cells [1]; HAMLET 1 hour): did not stimulate DNA fragmentation | subG1 population (Jurkat cells [1]; TSA alone, 18 h): 26.13% | HAMLET-induced DNA fragmentation after HDAC inhibitor pre-treatment (Jurkat cells [1]; pre-treated with TSA 100 ng/ml or SAHA 2.5 μM for 2 hours, HAMLET 1 hour): enhanced HAMLET-induced DNA fragmentation | cytotoxicity at 18 h, 100 ng/ml [3]: 24.9% | acetylation of Histone H4 [4]: increase in the staining of the acetylation of histone H4 | intensity of the GFP (histone H4) staining [4]: slight increase | size of the nuclei [4]: slight increase in the size of the nuclei | cell death (subG1) (A459 cells): significantly increased cell death

B1: D87A: bovine α-lactalbumin mutant, aspartic acid at position 87 replaced by alanine (protein, UniProt P00711 20-142, looked up, variant D87A)
Alpha-lactalbumin: EQLTKCEVFRELKDLKGYGGVSLPEWVCTTFHTSGYDTQAIVQNNDSTEYGLFQINNKIWCKDDQNPHSSNICNISCDKFLDDDLTADIMCVKKILDKVGINYWLAHKALCSEKLDQWLCEKL
calcium binding [5]: totally abolish calcium binding | biological activity [6]: biologically inactive

B2: D87N: bovine α-lactalbumin mutant, aspartic acid at position 87 replaced by asparagine (protein, UniProt P00711 20-142, looked up, variant D87N)
Alpha-lactalbumin: B1 Alpha-lactalbumin with A87N
calcium binding [5]: still bound calcium but with lower affinity | biological activity [6]: biologically inactive

B3: HAMLET (protein, UniProt P00709 20-142, looked up)
Alpha-lactalbumin: KQFTKCELSQLLKDIDGYGGIALPELICTMFHTSGYDTQAIVENNESTEYGLFQISNKLWCKSSQVPQSRNICDISCDKFLDDDITDDIMCAKKILDIKGIDYWLAHKALCTEKLEQWLCEKL
modifications: complex with oleic acid
histone acetylation (Example 5) [2]: did not change the degree of acetylation | histone H4 acetylation (Example 1) ([2]; low concentrations of HAMLET 1H, TSA 100 ng/ml 2H, vs medium control): decrease in histone H4 acetylation | DNA fragmentation (sub G0/G1), substance alone (Jurkat cells [1]; HAMLET 1 hour): induce DNA fragmentation | subG1 population (Jurkat cells [1]; HAMLET alone, 3 h): 14.58% | decrease in ATP levels (Jurkat cells [7]; HAMLET 0.1 mg/ml): 9.2% | decrease in ATP levels (Jurkat cells [7]; HAMLET 0.2 mg/ml): 41.17% | decrease in ATP levels (Jurkat cells [7]; HAMLET 0.3 mg/ml): 85.71% | effect on mixture of tailless histones and 146 bp DNA [8]: assembly of nucleosomes | loss of viability by trypan blue exclusion (Jurkat cells [9]): 19.7% | acetylation of Histone H4 [4]: increase in the acetylation of Histone H4 | intensity of the GFP (histone H4) staining [4]: increase of the intensity of the GFP staining | size of the nuclei [4]: marked decrease in the size of the nuclei

Source: patent US20090036368A1, “Therapeutic Combination” (HAMLET PHARMA AB, priority 2005, published 2009)
